The values that follow come from FireProtDB (doi:10.1021/bi201411c).

The conditions of this data set: Nostoc ellipsosporum, pH 6, 25 °C, GdnHCl, sodium phosphate 20 mM, transition: 2, reversible: yes(90%), whole UniProt chain shown.

B1: Cyanovirin-N wild type, P81180 (protein)
chain: LGKFSQTCYNSAIQGSVLTSTCERTNGGYNTSSIDLNSVIENVDGSLKWQPSNFIETCRNTQLAGSSELAAECKTRAQQFVSTKINLDDHIANIDGTLKYE
Take B1: under “CD”, the denaturant m value stood at 2 kcal/mol/M and the “denaturant midpoint (higher = more stable)” value was 2.5 M. Where the note is “fluorescence”, the denaturant m value amounted to 1.9 kcal/mol/M and the “denaturant midpoint (higher = more stable)” value was found to be 2.6 M.
